Measurements reported in patent publication US20230390362A1, “USE OF TRIGONAL AGONIST HAVING ACTIVITIES TO ALL OF GLUCAGON, GLP-1, AND GIP RECEPTORS IN TREATMENT OF SEQUELAE FOLLOWING RESPIRATORY INFECTIOUS DISEASES” (HANMI PHARM. CO., LTD., priority 2020, published 2023).
Positions of bridges follow the written chain, without caps; N, C: chain ends. Non-standard residues stand in square brackets, D forms with d. No end group written: not given here. *: point of attachment. Acetyl(2-(4-imidazolyl)) = O=C(Cc1c[nH]cn1)*; Aib = CC(C)(N)C(=O)O

T1: human GIP receptor (human, UniProt P48546 22-466)
T1 sequence (looked up): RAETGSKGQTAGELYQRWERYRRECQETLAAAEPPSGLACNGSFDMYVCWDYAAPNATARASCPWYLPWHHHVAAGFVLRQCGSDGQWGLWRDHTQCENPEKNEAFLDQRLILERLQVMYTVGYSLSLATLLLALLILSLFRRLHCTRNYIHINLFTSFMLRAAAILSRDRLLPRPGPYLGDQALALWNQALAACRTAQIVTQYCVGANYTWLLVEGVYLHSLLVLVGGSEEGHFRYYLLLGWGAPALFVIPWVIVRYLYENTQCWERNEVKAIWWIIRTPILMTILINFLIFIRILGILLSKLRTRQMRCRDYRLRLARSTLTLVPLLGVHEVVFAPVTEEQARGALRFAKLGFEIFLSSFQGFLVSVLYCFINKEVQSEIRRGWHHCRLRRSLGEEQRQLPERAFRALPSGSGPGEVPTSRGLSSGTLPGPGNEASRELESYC

B1: trigonal agonist of SEQ ID NO: 84 (peptide)
peptide: {Acetyl(2-(4-imidazolyl))}-[Aib]EGTFTSDYSIAMDEIHQKDFVDWLLAEC
modifications: bridge 15-19
B2: trigonal agonist of SEQ ID NO: 88 (peptide)
peptide: {Acetyl(2-(4-imidazolyl))}-[Aib]QGTFTSDYSKYLDEKRQKEFVQWLLNTKC
modifications: bridge 15-19
B3: trigonal agonist of SEQ ID NO: 94 (peptide)
peptide: {Acetyl(2-(4-imidazolyl))}-[Aib]QGTFTSDYSIAMDEIHQKDFVNWLLNTKC
modifications: bridge 15-19
B4: trigonal agonist of SEQ ID NO: 83 (peptide)
peptide: {Acetyl(2-(4-imidazolyl))}-[Aib]EGTFTSDYSIAMDEIHQKDFVNWLLAQC
modifications: bridge 15-19
B5: trigonal agonist of SEQ ID NO: 93 (peptide)
peptide: {Acetyl(2-(4-imidazolyl))}-[Aib]QGTFTSDYSKYLDEKRQKEFVNWLLAQKC
modifications: bridge 15-19
B6: trigonal agonist of SEQ ID NO: 90 (peptide)
peptide: {Acetyl(2-(4-imidazolyl))}-[Aib]EGTFTSDYSIAMDEIHQKDFVNWLLAQKC
modifications: bridge 15-19
B7: trigonal agonist of SEQ ID NO: 86 (peptide)
peptide: {Acetyl(2-(4-imidazolyl))}-[Aib]QGTFTSDYSKYLDEKRQKEFVNWLLAQC
modifications: bridge 15-19
B8: trigonal agonist of SEQ ID NO: 97 (peptide)
peptide: Y[Aib]QGTFTSDYSKYLDEKRAKEFVQWLLDCHPSSGQPPPS
modifications: bridge 16-20
B9: trigonal agonist of SEQ ID NO: 85 (peptide)
peptide: {Acetyl(2-(4-imidazolyl))}-[Aib]QGTFTSDYSIAMDEIHQKDFVNWLLAQC
modifications: bridge 15-19
B10: trigonal agonist of SEQ ID NO: 92 (peptide)
peptide: {Acetyl(2-(4-imidazolyl))}-[Aib]QGTFTSDYSIAMDEIHQKDFVNWLLAQKC
modifications: bridge 15-19
B11: trigonal agonist of SEQ ID NO: 89 (peptide)
peptide: {Acetyl(2-(4-imidazolyl))}-[Aib]QGTFTSDYSKYLDEKRQKEFVQWLLDTKC
modifications: bridge 15-19
B12: trigonal agonist of SEQ ID NO: 96 (peptide)
peptide: Y[Aib]QGTFTSDYSKYLDEKRAKEFVQWLLDHCPSSGQPPPS
modifications: bridge 16-20
B13: trigonal agonist of SEQ ID NO: 82 (peptide)
peptide: {Acetyl(2-(4-imidazolyl))}-[Aib]QGTFTSDYSKYLDEKRQKEFVQWLLDTC
modifications: bridge 15-19
B14: trigonal agonist of SEQ ID NO: 10 (peptide)
peptide: H[Aib]QGTFTSDVSKYLDGQAAQEFVAWLLAGGGPSSGAPPPSC
B15: trigonal agonist of SEQ ID NO: 80 (peptide)
peptide: H[Aib]EGTFTSDYSIAMDEIHQKDFVDWLLAEKC
modifications: bridge 16-20
B16: trigonal agonist of SEQ ID NO: 95 (peptide)
peptide: Y[Aib]QGTFTSDYSKYLDEKRAKEFVQWLLCHHPSSGQPPPS
modifications: bridge 16-20
B17: trigonal agonist of SEQ ID NO: 87 (peptide)
peptide: {Acetyl(2-(4-imidazolyl))}-[Aib]QGTFTSDYSIAMDEIHQKDFVNWLLNTC
modifications: bridge 15-19
B18: trigonal agonist of SEQ ID NO: 91 (peptide)
peptide: {Acetyl(2-(4-imidazolyl))}-[Aib]EGTFTSDYSIAMDEIHQKDFVDWLLAEKC
modifications: bridge 15-19
B19: trigonal agonist of SEQ ID NO: 98 (peptide)
peptide: Y[Aib]QGTFTSDYSKALDEKAAKEFVNWLLDHHPSSGQPPPSC
modifications: bridge 16-20
B20: trigonal agonist of SEQ ID NO: 81 (peptide)
peptide: {Acetyl(2-(4-imidazolyl))}-[Aib]QGTFTSDYSKYLDEKRQKEFVQWLLNTC
modifications: bridge 15-19
B21: trigonal agonist of SEQ ID NO: 9 (peptide)
peptide: H[Aib]QGTFTSDVSKYLDGQAAQEFVAWLLAGC

target: human GLP-1 receptor (human, UniProt P43220 24-463); assay: cell-based or functional assay

Point of comparison: B21, “In vitro activity relative to native peptide (%), vs. GLP-1 (cAMP EC50)” value 32.1%. Against it:
- B1 — lower, 4.2%
- B2 — lower, 9.6%
- B3 — lower, 0.5%
- B4 — higher, 47.3%
- B5 — lower, 5.7%
- B6 — lower, 7.4%
- B7 — lower, 28.4%
- B8 — lower, 10.5%
- B9 — lower, 4.3%
- B10 — lower, 0.8%
- B11 — lower, 7.1%
- B12 — higher, 34.4%
- B13 — lower, 9.5%
- B14 — higher, 46%
- B15 — lower, 8.1%
- B16 — lower, 2.1%
- B17 — lower, 0.9%
- B18 — lower, 31.9%
- B19 — lower, 28.1%
- B20 — lower, 7.8%

target: human GCG receptor (human, UniProt P47871 26-477); assay: cell-based or functional assay
Sequence (P47871 26-477): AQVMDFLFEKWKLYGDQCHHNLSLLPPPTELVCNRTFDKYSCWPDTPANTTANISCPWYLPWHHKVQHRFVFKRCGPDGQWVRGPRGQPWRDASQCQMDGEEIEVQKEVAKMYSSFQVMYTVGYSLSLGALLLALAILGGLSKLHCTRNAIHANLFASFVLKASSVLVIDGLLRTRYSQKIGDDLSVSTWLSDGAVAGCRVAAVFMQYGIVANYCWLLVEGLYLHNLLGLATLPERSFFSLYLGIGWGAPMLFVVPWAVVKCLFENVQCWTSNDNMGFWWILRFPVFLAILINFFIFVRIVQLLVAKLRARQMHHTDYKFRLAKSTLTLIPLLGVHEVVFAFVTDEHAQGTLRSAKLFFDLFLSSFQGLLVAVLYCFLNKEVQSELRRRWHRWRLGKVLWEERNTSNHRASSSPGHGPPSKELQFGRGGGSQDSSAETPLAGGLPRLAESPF

Point of comparison: B18, “In vitro activity relative to native peptide (%), vs. Glucagon (cAMP EC50)” value 16.8%. Against it:
- B1 — lower, < 0.1%
- B2 — lower, 0.3%
- B3 — lower, < 0.1%
- B4 — lower, 1.3%
- B5 — lower, 0.3%
- B6 — lower, < 0.1%
- B7 — lower, 0.4%
- B8 — higher, 62.8%
- B9 — lower, < 0.1%
- B10 — lower, < 0.1%
- B11 — lower, 0.7%
- B12 — higher, 195%
- B13 — lower, 1.1%
- B14 — lower, < 0.1%
- B15 — lower, 0%
- B16 — lower, 0.4%
- B17 — lower, < 0.1%
- B19 — lower, 8.2%
- B20 — lower, 0.3%
- B21 — lower, 0.13%

target: T1, human GIP receptor; assay: cell-based or functional assay

Point of comparison: B8, “In vitro activity relative to native peptide (%), vs. GIP (cAMP EC50)” value 2.6%. Against it:
- B1 — lower, < 0.1%
- B2 — lower, < 0.1%
- B3 — lower, < 0.1%
- B4 — lower, 0.4%
- B5 — lower, 0.7%
- B6 — lower, < 0.1%
- B7 — lower, 0.2%
- B9 — lower, 0.3%
- B10 — lower, 0.4%
- B11 — lower, < 0.1%
- B12 — higher, 5.2%
- B13 — lower, < 0.1%
- B14 — lower, < 0.1%
- B15 — lower, 0.1%
- B16 — lower, < 0.1%
- B17 — lower, < 0.1%
- B18 — lower, 0.3%
- B19 — higher, 47.1%
- B20 — lower, < 0.1%
- B21 — lower, < 0.1%
